The supplement of paper PMC12636428

System: Saccharomyces cerevisiae
Test: transcriptional activation domain activity (GFP:mCherry ratio, weighted mean of sorted bins, harmonized to initial dataset scale) (arbitrary fluorescence ratio units); higher = stronger transcriptional activation
Conditions: beta-estradiol 1 µM; induction time 4 h
Experimental: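 53-aa protein tiles (fungal proteins plus yeast TF control tiles) fused C-terminally to a DBD-estrogen-binding domain-mCherry synthetic TF, integrated in S. cerevisiae (URA3 locus) with a GFP reporter. Cells were induced with 1 uM beta-estradiol for 4 h at 30 C, FACS-sorted into 8 bins by GFP:mCherry ratio and barcodes sequenced. Activity is the read-weighted mean bin fluorescence (GFP:mCherry), averaged over barcodes (median 12); tiles under 50 reads were discarded. New active-learning values were harmonized by linear fit onto the scale of the initial (Hummel et al.) dataset. The assay saturates at low and high signal.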

Sequence | transcriptional activation domain activity
NWYWLASTMYFLYGESVIYYFKHIVLVDKVLLPLATHHRFISFVLYVIGFVFF | 74800
LLLLIFAVFLRACDILSSQWLIWWTDGIVLGASHDLNFWKGWYMFIVWISLFF | 54800
EAPAPKKARGRPKKAAVKEDDAGSEEEAPAPKKAKGRLPKAVLKEEAESEAEA | 12900
MGNKQDGVSGLGFMLISFSCLLLEWLTCAVSSILLSSEFWELSLVCLTLFWFL | 28900
RIVSSLFFICHGNYYIAFVILSKALDDYVPKIYVLNLNLNHLYLGLLIMCLLL | 35800
SLISFRLLGEVATGIKYLVCYDMPNMSRIEVELAKRLYCLILCGLCTWSIYGR | 79500
AVRAATSVLCKEMLRPGQSASLGLREAEEVECRMRALARLERVWVKTGASTNG | 54900
MKGIRLYFRYVLLHVLLLLPSLPFFFPYLCRRFTCSFMNILIGFLFCFFLYIC | 55300
SRDRDRKEKTDKTDKDRERDREKERRGEREREREKERERERAERHRERDRERE | 32800
AMDGVAQLHALLGGCHTRLAGLVFSTFEAAVLLVYLCVDPMFPRDCPHQHVPP | 57400
MFMGTLWLVIFHYGWAFFLDYCVWYFMISLCFWCEVCLPVLLPAFHVCCLLWC | 52400
FDYDMFFRDSSKEGNNLFGEFLEDDDDDKKAANMSDDESSLIKNQLINEEPEL | 41400
AASPEEVIAPKSKRQPRRNTQAVSADPASLTPPADTKPKRSRAPRKAKVTIAE | 13300
IYGSTAKPFPYTEGYHFLLKFVTEKFEKAEVLRIVRALGLFRPSLIALQMPLT | 42800
LDFLDLWTFWPWTFWPWTFWTVGLFGLLALDLLALDFLDLWTFWPWTFWPWTF | 60400
VGTVMFGLACASSTQVLLSLIGGWNVGFFISLLAVTIFAVLTKIIPWVWYIYS | 58300
DLDNDIDFETAYQMLSSNFDDQMSAHIHENTFSATSPPLLTHELGIIPNVATV | 95500
SIDSAAHHDNSTIPLDFMPRDALHGFDWSEEDDMSDGLPFLKTDPNNNGFFGD | 69800
KDEEEREGEKRKEGKEESDTAVVKHRRRYRSRSKDRKRDGSRERRHRERSREG | 30600
QSFQTLLLILFLPPPLISPFLYVTFFFFPFFPFFFALPRFWDRWALSAFFFLL | 49200
GSFVGFLFCFVDFGFWILEFSFFFSWMPAGVLSFWMVASQWGKADDIFFSLFF | 50600
DETLAYIARRHNYTGKSLILPPTEITLRFFAHVARVMELSMADLLIALVYVRR | 50100
TFGLQTSDKNHYIVDAIHVAVARVGVYVQYPQLQKWSLGKIFYISVWKMRTKF | 68800
PFVVTLLNLWKIWSLKLLKEKARLVVDGGAFVMGCVDETVTLRGHDDHKWTKD | 56800
FFFFLLFCFSFLYRLLSLYLFLFPFDFFFFSPWFCSNSRFYLRFVSFFPFFFF | 50200
TSPKKKGRAAAKGKKGADKENAEAKTEVEKKASEDEFKDLEPNGDSKTNGAAA | < 6570
MHFAVKVKMQFFFFPSLSFFSSVVFISPPPPFVFLWHMGFLACLLFRSLVVFF | 57000

Sequence | transcriptional activation domain activity
TSTTPAGAPPADKPAGSLFGVKPAAAGSSSGGLFGQASNTSVAPSSIATTTAS | 28400
MIRWVFFRGYLGQEGFLSFLFFFVFFSGLSLWERIGYGFFILPSFYMDLLFLA | 58300
VYILSFYLPSLFPSFFTHSLFFFLHLWSCSTSSQTNMRLPTLAFISLPFVLTF | 53600
VAIFTDVKNDHLMPNFNLHDQYCNSTNHDSHNHNNTVPDSFSQLMSHLSEIDC | 27700
EKKAPGRRGRPPKAAAAKKAKEAAAPGEEGAKPKRPVGRPRKGTTETAEKKGA | 22300
PSNQAFWIACLFSSVMYHLLFHLLLLFFSLLFLFFLFFLPSYHVLFHFHHMTG | 47700
KLYQLKLKIFLYWQRYSYLYAKRKHSTKHHTLLVWSLKVKKLYGILWCFLLLF | 36600
DRDRSRSRSRSRSKSPRRHRRSSRSPRRRGADKSPERAAPAASSKQAEARPRC | 31100
GWKGRGKSGGRGRKTSGGGLKTERKSGGVSKASGGGGSSSRGGRGAGAGAGAG | 14100
VFFLSLCFASFFPLGHLCWAKGLFHTLEFIAPISRSVSCYVMGLVLYTFHLPE | 22000
MLTILAQNQWFYIIVYIILSYLVIFIIGLFPSVLFFRLRHLHYSFSFYLEYLA | 32700
TVQLLKLFCAFSSLSSILIALLLQTPYYLATTWGTLLRRYIIFFSFPLINSIS | 54200
LLVRIIGRCGFLGASFQVALLSDYISIMTLHIYWFYAVAARIYFWQLSILHSL | 43100
VEFLFPIYATVAFTTLGCISMFALPYAVLTILPNFYLNCPYGTPLSGVTWRLS | 61600
MRILQFFSFLYLLLYFSRTLLIVIYTLVILLLNQLLVFFKFLSLFFAFFWYVF | 41400
MISWLLRFFWLPGGLFFIWCFFSVPFFALRFCSCRHSFFTTFFLCFFYFYFVT | 67100
TGTEQKKGIGGRRRRSKQASKQGSRPVCGHACACVCLCVPCLSCVCVSVLHLL | 67800
NLQKIISYLLPAGSWSEDWPIILNVFFGCPLPLSSFLMVIICCFTDLFCCLTL | 47100
SFSAYFIACCVVIHVTQLVGSPLYLFNKPLYYAYMARTKQSFGVLVTTITQWW | 68900
GRPPRSSNESPEAKPAKRARKKAPTEEPEAEVLEDVKPKRGRARVAKKTTADV | 22400
LSHSFFSSCCCLLRTLGRFLLFIIFFLSFYFLPFFFSFQTYLLLYLLLIVYFH | 29700
MAMTPVRGEGNDGYRTSDGEMESGGTRAQGKVIQRSRWVASSHIVAPAEVEKP | 27500
QKMQKSGGFVNINVFGFVFIIAVSCVVVTLDITLLKFLIFISEFQRLTHLSAR | 45400
RQRKDNHKEVERRRRGNINEGINELGRIVPNGSGEKAKGAILSRAVQYIHHLK | 13600
EEAAAPAASKGQGTAAAASGRSRNRRRGAGEDGKGKAERGGEAMTSAPSPAKP | 13400
KGRGGGKGRGGGKERGGGKGRGGEGEGEGEGEREGGGRGKERGREGEREGERG | 21800
VFTSLHTCRFAAPHLWWLIFSILCLQYLIILEVFVIAMLVFIIGPLIYLFWNI | 42600

Sequence | transcriptional activation domain activity
ITFLFIFFFYFFTYSFFYISFFRTCFPEFAHQMFEMVLLWNLFLLFVFCLFFF | 57600
MVLSILEIICAVVVLHPSCNYHIFSQCICEFSSWSFAISALLVVVLFWAAVAR | 56000
GMGTAAGKSRARAAAKKTTTKGKESKGKSKSQVGTRRSVRGKRGAREVGDASS | 27300
ADADAGKEAEGGAGGKRCKGCGKGEGEGEEGGLRRCARCKVVVYCGRECQKRD | 36700
PRQMCRLYRAGYGLFYNQFCAYIDIAFCMMLCQWNLDILETLRYRLEFGRYLA | 71100
FGHVINEFVLSTFLTDQCHKIPQDTVNAYFEDCSTISTSQILMLLYILTFNDY | 60700
KIHLVNISQVVVFFVYRFLYGLIPLFEIATCAYYPLLVSLWHLDYLLFYAVMF | 48100
HLKHTFVMDVAMSIGYLMAPVLVSACAFIWYVKVDNHELSASVVFVSITLFDM | 61800
FLDVSTSYDIGNPPSISDDLLDLSIFTAQNFQSPSIDFRRVKLMHDFLDVSRF | 125000
RLILILSLLVCWAAAIIDCVFVIIAGVTGVLQPQSRYLVLLLPMLFTNFLATL | 57300
MLYYYHYLAVQSGLKRKYAFKNMYLCLLLYSLFFVFASINIVHLIKWQCYFFV | 45800
LPLYILSLLCCFFIIAMFWKVTIPFFLIFPSFFMLSCFHLYFSFSPSRWCILN | 38600
EKEVEGNKNNEEDKPEENEEKDGEDKDAKEKGEEDEDEEDRDQDQEDEDQEGR | 11800
GKKGSSGAKKGGKKGSSTGAKEEVAKKPSIEKSGEKKSEGGEKKENDEKKNDK | 37900
DDEDEEQEEEEEDVDPEVRRKEELRARMAKMSGGMGMAGMFGMMPMPGAGAPP | 41500
QEKEGGAKEAQPDADADAEAEGKAARQKARKAVVSAASDDEGDDEEEEEEEEG | 10000
FPPPFPPPFPPPFLSSFPPPVPLPLTFPLPPFPFQFPFPFPHPLTFPLPFPFP | 17600
ALYSLFIECTLAPMLLKAIKDRVGEITLDFCWRAYKVYLTSICYLWKNVSLII | 40600
LANGLVVVLHTEAYDLPDNFASNCWFVIYYTNNSYLRFSSIYRYIFSIVIIVL | 45800
RGGNPSGNAGGAGRRAKKSKDRDRNKKKSKKNSGQSGDRSTSSSKNKNKKGGG | < 6570
HSRSPSRHRRRSYSRSRRYDSRSPRRRRSGSPSRRIVDEEEAAVTDGFIRAVA | 37300
SFSILYSRFAGPSIYMGMRNLLILLYVSMAIWIPHLIYFWLSVLSLCIAPFLF | 37800
LIWSCKLIWAAYLDMYRYHIYVLVSFEVVALLTWILTLLYGVPNLINLVYHAY | 56300
FVEKGRERERGKGRRGGGGGAGEEQREGGGGGRGGGRGKTVVVVVRDVASSGD | 25100
MSHSASTSASTSTAAGEPSAKRMRLGTRSCAECRRRKVRCIVPPGARVCEGCS | 75900
